Laboratory results published in PMC8939794.

Target: His6-Tagged vimentin (Novus Biologicals) (UniProt P08670)
Assay: MST; His6-vimentin labelled with RED-tris-NTA 2nd Generation dye, kept at 20 nM; V-domain protein titrated from 40 uM to 0.117 uM; premium capillaries, Monolith NT.115 Pico, 20% excitation power; 'estimated' Kd

Sequence of UniProt P08670 (P08670 whole entry): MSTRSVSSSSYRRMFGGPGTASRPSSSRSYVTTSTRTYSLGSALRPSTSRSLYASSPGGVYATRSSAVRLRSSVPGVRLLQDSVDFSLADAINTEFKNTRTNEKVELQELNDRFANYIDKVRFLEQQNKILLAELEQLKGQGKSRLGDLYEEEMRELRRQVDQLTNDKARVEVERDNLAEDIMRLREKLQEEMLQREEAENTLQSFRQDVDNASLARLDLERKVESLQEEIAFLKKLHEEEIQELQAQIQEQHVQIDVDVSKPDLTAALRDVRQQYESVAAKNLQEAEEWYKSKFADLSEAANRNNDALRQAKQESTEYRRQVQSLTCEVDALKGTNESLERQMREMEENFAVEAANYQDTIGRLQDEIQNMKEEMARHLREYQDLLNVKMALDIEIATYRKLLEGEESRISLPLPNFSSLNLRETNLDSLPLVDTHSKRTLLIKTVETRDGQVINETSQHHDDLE

| Substance | Kd [µM] |
| --- | --- |
| BspC Gating Loop Mutant (GLM) V-domain, A250P/A259P (domain or fragment) | 41.9 |
| BspC V-domain (variable domain of Group B streptococcal surface protein C, strain COH1) (domain or fragment) | 7.14 |
